# T1: B. anthracis lethal factor (LF) (Bacillus anthracis, UniProt P15917 34-809)
# T1 sequence: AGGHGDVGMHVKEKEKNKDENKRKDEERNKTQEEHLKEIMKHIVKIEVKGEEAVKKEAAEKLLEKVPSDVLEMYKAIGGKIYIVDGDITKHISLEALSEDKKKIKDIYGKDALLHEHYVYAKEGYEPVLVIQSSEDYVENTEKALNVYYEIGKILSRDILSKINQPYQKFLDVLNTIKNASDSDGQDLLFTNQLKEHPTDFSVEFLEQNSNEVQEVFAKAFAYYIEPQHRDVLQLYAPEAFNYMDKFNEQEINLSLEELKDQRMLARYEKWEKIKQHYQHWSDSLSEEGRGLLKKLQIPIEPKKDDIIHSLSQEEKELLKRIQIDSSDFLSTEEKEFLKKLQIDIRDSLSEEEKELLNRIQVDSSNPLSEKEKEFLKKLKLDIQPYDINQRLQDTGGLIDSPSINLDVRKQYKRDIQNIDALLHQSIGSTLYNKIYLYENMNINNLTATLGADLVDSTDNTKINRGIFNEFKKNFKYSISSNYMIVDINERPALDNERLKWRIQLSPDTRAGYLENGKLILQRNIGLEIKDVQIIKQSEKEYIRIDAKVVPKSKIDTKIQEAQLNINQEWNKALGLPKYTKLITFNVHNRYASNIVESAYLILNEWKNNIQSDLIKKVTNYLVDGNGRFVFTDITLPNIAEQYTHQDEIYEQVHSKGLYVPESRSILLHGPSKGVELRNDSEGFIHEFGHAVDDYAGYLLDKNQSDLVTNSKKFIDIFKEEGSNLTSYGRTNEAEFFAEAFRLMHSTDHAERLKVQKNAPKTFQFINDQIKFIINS
# B1: human monoclonal antibody IQNLF (antibody, V domains shown)
# VH: EVQLLESGGGLVQPGGSLRLSCSGSGFMFSSYAMSWVRQAPGKGLEWVSGISGSGGTTNYADSVKGRFTISRDNSKNTLYMQMNSLRAEDTAVYYCAKDGVYGRLGGSDYWGQGTLVTVSS
# VL: EIVLTQSPDFQSVSPKEKVTITCRASQSVGSSLHWYQQKPDQSPKLLIKYASQSFSGVPSRFSGSGSGTDFTLTINSLETEDAATYYCHQSSSLPLTFGGGTKVEIKR
# B2: human monoclonal antibody IQNPA (antibody, V domains shown)
# VH: QVQLVQSGAEVKKPGASVKVSCKASGYTFTSNAIQWVRQAPGQRLEWVGWINGGDGNTKYSQKFQGRVTISRDISASTAYMELSSLRSEDTAVYYCARHRLQRGGFDPWGQGTLVTVSS
# VL: EIVLTQSPGTLSLSPGERATLSCRASQSVSYSSLAWYQQKPGQAPSLLIYGASSRATGIPDRFSGSGSGPDFTLTISRLEPEDFAVYYCQHYGNSPYTFGQGTKLEIKR
# Key:
# [1] = target: T1, B. anthracis lethal factor (LF); experiment: hybridoma screening by ELISA for anti-LF antibodies
# [2] = target: B. anthracis protective antigen (PA) (Bacillus anthracis, UniProt P13423 30-764); experiment: hybridoma screening by ELISA for anti-PA antibodies
# B. anthracis protective antigen (PA), sequence (P13423 30-764 limits assumed): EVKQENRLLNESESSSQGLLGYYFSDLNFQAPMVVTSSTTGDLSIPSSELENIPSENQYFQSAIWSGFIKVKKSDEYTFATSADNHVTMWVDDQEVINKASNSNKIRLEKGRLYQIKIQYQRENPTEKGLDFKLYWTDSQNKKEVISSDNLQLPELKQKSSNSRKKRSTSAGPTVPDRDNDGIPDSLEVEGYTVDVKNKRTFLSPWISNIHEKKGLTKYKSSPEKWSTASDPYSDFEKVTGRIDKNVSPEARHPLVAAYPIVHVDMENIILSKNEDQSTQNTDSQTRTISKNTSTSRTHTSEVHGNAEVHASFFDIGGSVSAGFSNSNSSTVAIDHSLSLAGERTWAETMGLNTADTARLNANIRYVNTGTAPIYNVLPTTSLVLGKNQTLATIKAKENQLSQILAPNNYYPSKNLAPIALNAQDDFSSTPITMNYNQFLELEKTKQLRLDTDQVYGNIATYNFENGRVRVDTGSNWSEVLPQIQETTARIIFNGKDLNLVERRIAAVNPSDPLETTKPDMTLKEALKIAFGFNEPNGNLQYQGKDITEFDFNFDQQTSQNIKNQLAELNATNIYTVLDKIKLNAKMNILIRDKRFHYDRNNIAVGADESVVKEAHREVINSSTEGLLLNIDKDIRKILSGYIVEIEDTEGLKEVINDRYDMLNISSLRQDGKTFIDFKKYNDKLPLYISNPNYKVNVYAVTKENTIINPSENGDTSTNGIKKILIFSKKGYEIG
Binder,binding result [1],binding result [2]
B1,binds,–
B2,–,binds
